Results as given in patent publication US11918683B2, “Treatment of immune diseases by administration of antigen-specific formulations” (Allero Therapeutics B.V., priority 2017, dated 2024).
Ends that are not written are not given here.

How the values were obtained:
Foxp3 = Foxp3 expression within CD4+ T cell population by FACS; type: cell-based, NOD AB° DQ8 transgenic mice; details: spleen
Method: Flow cytometric analysis: spleens and cervical lymph node tissue of SLIT treated mice were isolated, prepared as described above and stained for CD4, CD25 and Foxp3. Intracellular staining was performed for Foxp3 according to the manufacturer's instructions (eBiosciences) and subsequently measured using flow cytometry on a Becton Dickinson FACSCaliburs. Cells were gated on CD4^+CD25^+ and CD4^+CD25^− subpopulations and within these populations Foxp3 histograms were used to determine Mean Fluorescence Intensity (MFI).
T-cell phenotyping: CD4 and CD25 antibodies were purchased from BD Biosciences, and APC anti-Foxp3 staining kits were purchased from eBiosciences. Anti-IL-10 neutralizing monoclonal antibody (1 μg/mL, clone JES052A5), TGF-β neutralizing monoclonal antibody (1 μg/mL, clone 1D11) and LAP (latency associated peptide) neutralizing antibodies (1 μg/mL, clone 27235) were obtained from R&D systems.

[1] = tested on: NOD AB° DQ8 transgenic mice; test: Antigen-specific DTH response (ear swelling) after SLIT; type: in vivo; details: 10 μg DQ8d in ear, 24 hours, compared to PBS
[2] = tested on: OVA- or HDM-sensitized mice; test: Sublingual immunotherapy (SLIT) mouse model; type: in vivo, BALB/cByJ mice; details: sublingual 5 days a week for 8 weeks
Method: Antigen: naturally purified Der p1 and 2 in a 50:1 ratio was purchased from Citeq or intact, LPS-free OVA grade V protein (Sigma Aldrich) was used as antigen in all experiments. Animals: BALB/cByJ mice were purchased from Charles River Laboratories at an age of 6 to 8 weeks and housed in individually ventilated cages (IVC). Sensitization of mice: all mice received intraperinoneal injections on day 1 and 15 of 5 μg crude extract […]) or 25 μg OVA adsorbed to 2.25 mg Alum (Imject, Pierce) in 100 μL PBS. […] Hereafter, airway responsiveness was determined, and bronchoalveolar lavage fluid (BALF), lungs, and blood were collected and stored for analyses. Measurement of airway hyperreactivity to methacholine: airway hyperresponsiveness (AHR) was assessed by measuring airway resistance (R in cmH2O.s/mL) and lung compliance (C in mL/H2O) in response to intravenous administration of increasing doses of methacholine (Sigma-Aldrich). The AHR was expressed as the effective dose of methacholine required to induce a R of 3 cmH2O.s/mL (ED3). […] ELISA determined the concentrations of IL-5, IL-10, IL-13 and IFN-γ, according to the manufacturer's instructions (BD Pharmingen). […]

[3] = tested on: OVA- or Ovm-sensitized piglets; test: Piglet food allergy model, oromucosal PSF patch treatment; type: in vivo, Landrace-Yorkshire piglets; details: oromucosal once weekly for 6 weeks

deaminated DQ8d peptide GAPVPYPDPLEPRQYPSGEGSFQPSQENPQA (also: deaminated (sites not given here)) [deaminated gliadin peptide antigen]
number of Foxp3 CD4+ T cells (Foxp3): did not show a significant increase
DTH response (ear swelling) [1]: slight reduction

B1: OVA: intact, LPS-free OVA grade V protein (ovalbumin) used as antigen (protein, UniProt P01012 2-386, looked up)
Ovalbumin: GSIGAASMEFCFDVFKELKVHHANENIFYCPIAIMSALAMVYLGAKDSTRTQINKVVRFDKLPGFGDSIEAQCGTSVNVHSSLRDILNQITKPNDVYSFSLASRLYAEERYPILPEYLQCVKELYRGGLEPINFQTAADQARELINSWVESQTNGIIRNVLQPSSVDSQTAMVLVNAIVFKGLWEKAFKDEDTQAMPFRVTEQESKPVQMMYQIGLFRVASMASEKMKILELPFASGTMSMLVLLPDEVSGLEQLESIINFEKLTEWTSSNVMEERKIKVYLPRMKMEEKYNLTSVLMAMGITDVFSSSANLSGISSAESLKISQAVHAAHAEINEAGREVVGSAEAGVDAASVSEEFRADHPFLFCIKHIATNAVLFFGRCVSP
AHR [2]: only a moderate effect
AHR [3]: only a moderate effect

B2: Ovm: Ovm protein (ovomucoid) used as antigen (protein, UniProt P01005 25-210, looked up)
Ovomucoid: AEVDCSRFPNATDKEGKDVLVCNKDLRPICGTDGVTYTNDCLLCAYSIEFGTNISKEHDGECKETVPMNCSSYANTTSEDGKVMVLCNRAFNPVCGTDGVTYDNECLLCAHKVEQGASVDKRHDGGCRKELAAVSVDCSEYPKPDCTAEDRPLCGSDNKTYGNKCNFCNAVVESNGTLTLSHFGKC
AHR [3]: only a moderate effect
